Some results are limits rather than exact numbers.

The target in this assay is FLAG-tagged β1 adrenergic receptor (UniProt P34971). Kind of assay: proximity ligation; in situ PLA (Duolink) in HEK293 cells stably expressing FLAG-tagged β1AR or β2AR; 10 μM carvedilol, isoproterenol or other βAR ligands for 5 min, with or without 10 μM propranolol for 30 min; fixed, permeabilised; rabbit anti-β1AR (or β2AR) with mouse anti-Gαi.
UniProt P34971, sequence (P34971 whole entry): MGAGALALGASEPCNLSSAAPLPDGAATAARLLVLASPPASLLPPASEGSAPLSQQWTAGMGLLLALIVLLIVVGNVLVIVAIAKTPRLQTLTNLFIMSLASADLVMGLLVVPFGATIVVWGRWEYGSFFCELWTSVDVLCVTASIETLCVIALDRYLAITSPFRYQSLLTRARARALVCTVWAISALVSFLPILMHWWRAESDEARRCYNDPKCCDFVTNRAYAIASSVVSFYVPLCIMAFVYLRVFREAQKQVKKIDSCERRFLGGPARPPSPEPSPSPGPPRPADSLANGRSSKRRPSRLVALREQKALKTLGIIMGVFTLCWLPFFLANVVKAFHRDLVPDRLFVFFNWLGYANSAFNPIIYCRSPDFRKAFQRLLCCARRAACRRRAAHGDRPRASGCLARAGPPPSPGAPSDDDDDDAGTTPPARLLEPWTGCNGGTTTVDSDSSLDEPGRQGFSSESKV

The substance “Gαi (from UniProt P08754 1-354) (natural protein)” returned a fold increase in the PLA signal after carvedilol over unstimulated cells above 2 fold.

(Values after article PMC5700200.)
